Residue numbers refer to the chain shown, from its start. Numbers in names are those of the source.
B1: X76 scFv (humanization lead) (scFv, V domains shown)
VH: EVQLVQSGGGVVQPGGSLRLSCAASGYTFTNYGMNWIRQAPGKGLEWVGWINTYTGEPTYAADFKRRVTFSLDTSKSTAYLQLNSLRAEDTAVYYCAKYPHYYGSSHWYFDVWGQGTLVTVSS
VL: DIQMTQSPSSLSASVGDRVTITCSASQDISNYLNWYQQKPGKAPKVLIYFTSSLHSGVPSRFSGSGSGTDFTLTISSLQPEDFATYYCQQYSTVPWTFGQGTKVEIK
notes: as the VH of m4 (WT) with the stated framework changes (Kabat numbering); scFv linker; VL paired with the VH humanization library; likely as the VL of m4; Selected as ccFv on phage, converted to scFv; source: Pichia pastoris X33 (pPIC6 alpha), culture supernatant, purified (Ni-NTA)
B2: X78 scFv (humanization lead) (scFv, V domains shown)
VH: B1 VH with S17T, S21T, I37V, L83M
VL: B1 VL
notes: as for B1
B3: X64 scFv (VH-CDR3 variant S100aR) (scFv, V domains shown)
VH: B1 VH with Q6E, V11L, I37V, V68F, L83M, S105R
VL: B1 VL
notes: as the VH of m4 (WT framework) with the stated VH-CDR3 change; scFv linker; Selected as ccFv on phage, converted to scFv; source: Pichia pastoris X33 (pPIC6 alpha), culture supernatant, purified (Ni-NTA)
B4: X97 scFv (VH-CDR3 mutations of X65 in the X76 framework) (scFv, V domains shown)
VH: B1 VH with H101Y, S105R
VL: B1 VL
notes: as the VH of m8 (X76 framework) with the VH-CDR3 changes of X65; scFv linker; VL as in m8; likely as the VL of m4; source: Pichia pastoris X33 (pPIC6 alpha), culture supernatant, purified (Ni-NTA)
B5: X63 scFv (VH-CDR3 variant H97Y, S100aT) (scFv, V domains shown)
VH: B1 VH with Q6E, V11L, I37V, V68F, L83M, H101Y, S105T
VL: B1 VL
notes: as the VH of m4 (WT framework) with the stated VH-CDR3 changes; scFv linker; Selected as ccFv on phage, converted to scFv; source: Pichia pastoris X33 (pPIC6 alpha), culture supernatant, purified (Ni-NTA)
B6: X96 scFv (VH-CDR3 mutations of X65 in the X72 framework) (scFv, V domains shown)
VH: B1 VH with I37V, V68F, L83M, H101Y, S105R
VL: B1 VL
notes: as the VH of m7 (X72 framework) with the VH-CDR3 changes of X65; scFv linker; VL as in m7; likely as the VL of m4; source: Pichia pastoris X33 (pPIC6 alpha), culture supernatant, purified (Ni-NTA)
B7: X65 scFv (VH-CDR3 variant H97Y, S100aR) (scFv, V domains shown)
VH: B1 VH with Q6E, V11L, I37V, V68F, L83M, H101Y, S105R
VL: B1 VL
notes: as the VH of m4 (WT framework) with the stated VH-CDR3 changes; scFv linker; Converted to scFv; source: Pichia pastoris X33 (pPIC6 alpha), culture supernatant, purified (Ni-NTA)

Legend:
[1] = target: T1, recombinant human VEGF (R&D Systems, 293-VE/CF) (Homo sapiens, UniProt P15692-4); test: SPR; Biacore, 25°C; VEGF amine-coupled to a CM5 chip (about 300 RU); monomeric scFv (after Superdex 75) in PBS at 10, 20, 40, 80, 160 nM, 30 µl/min, 5 min association, 10 min dissociation; global fit to 1:1 Langmuir model; conditions: both partners purified
T1 construct: recombinant human VEGF, R&D Systems 293-VE/CF; also called VEGF antigen; source: bought: R&D Systems (293-VE/CF)

[2] = target: T1, recombinant human VEGF (R&D Systems, …); test: SPR; Biacore, 35°C; VEGF amine-coupled to a CM5 chip (about 300 RU); monomeric scFv (after Superdex 75) in PBS at 10 to 160 nM; global fit to 1:1 Langmuir model; conditions: both partners purified

T1 sequence (P15692 whole entry): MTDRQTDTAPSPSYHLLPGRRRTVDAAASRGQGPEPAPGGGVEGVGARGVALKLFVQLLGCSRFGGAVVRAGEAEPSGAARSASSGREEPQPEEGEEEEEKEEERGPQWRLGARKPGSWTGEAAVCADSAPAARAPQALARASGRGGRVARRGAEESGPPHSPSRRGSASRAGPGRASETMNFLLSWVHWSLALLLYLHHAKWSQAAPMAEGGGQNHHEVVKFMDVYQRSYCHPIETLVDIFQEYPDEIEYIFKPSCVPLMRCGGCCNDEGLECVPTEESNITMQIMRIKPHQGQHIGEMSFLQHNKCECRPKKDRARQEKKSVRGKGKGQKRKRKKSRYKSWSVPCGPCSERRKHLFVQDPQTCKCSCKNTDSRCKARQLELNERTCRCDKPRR

Row | Binder | Kd [1] | Kd [2]
1 | B1 | 3.1 nM | –
2 | B2 | 5.9 nM | –
3 | B3 | 5.4 nM | –
4 | B4 | – | 0.12 nM
5 | B5 | 2.2 nM | –
6 | B6 | – | 0.11 nM
7 | B7 | 1.5 nM | –

Reference: article PMC3084267, “Antibody Engineering Using Phage Display with a Coiled-Coil Heterodimeric Fv Antibody Fragment” (PLoS ONE, 2011)
